Measured values published in article PMC11711613.
Where “and” joins values, the source holds several entries; their conditions need not be identical. Identical values can stand only once.

Columns and labels:
[1] = target: RctB domain IV (RctB^IV, amino acids 532 to 658) (Vibrio cholerae N16961); experiment: SEC; analytical SEC, Superdex 200 10/300, 50 mM Hepes, 200 mM NaCl, 2 mM MgCl2, 1 mM TCEP, calibrated with gel filtration standards
[2] = target: RctB, full length (Vibrio cholerae N16961); experiment: cryo-EM 2D class averages; RctB at 0.25 mg/ml in 50 mM Hepes, 200 mM NaCl, 2 mM MgCl2, 1 mM TCEP; reference-free 2D classification
[3] = target: RctB, full length (Vibrio cholerae N16961); experiment: SEC; analytical SEC, Superdex 200 10/300, 50 mM Hepes, 200 mM NaCl, 2 mM MgCl2, 1 mM TCEP, calibrated with gel filtration standards

Row | Substance | stoichiometry N [1] | stoichiometry N [2] | stoichiometry N [3]
1 | RctB domain IV (RctB^IV, amino acids 532 to 658) (domain or fragment) | 2 |  | 
2 | RctB, full length (natural protein) |  | 2 and 4 | 2 and 4
